# Data taken from US7205273B2, “Fusogenic liposomes” (The University of British Columbia, priority 1996, dated 2007).
# Tests used:
# [1] = 31P-NMR phase behaviour of equimolar DOPE:cholesterol mixtures with bilayer stabilizing component; assay type: physicochemical; settings: DOPE:cholesterol:BSC 1:1:0.25, 0 to 60° C.
# Method: Lipid components were mixed in 1–2 ml of benzene:methanol (95:5, v/v) and then lyophilized for a minimum of 5 hours at a pressure of <60 millitorr using a Virtis lyophilizer equipped with a liquid N2 trap. Multilamellar vesicles (MLVs) were prepared by hydrating the dry lipid mixtures in 150 mM NaCl, buffered with 10 mM Hepes-NaOH, pH 7.4 (Hepes-buffered saline, HBS). Mixtures were vortexed to assist hydration. To produce large unilamellar vesicles (LUVs), MLVs were first frozen in liquid nitrogen and then thawed at 30° C. five times. LUVs were produced by extrusion of the frozen and thawed MLVs ten times through 2 stacked polycarbonate filters of 100 nm pore size at 30° C. and pressures of 200–500 psi (Hope, et al., Biochim. Biophys. Acta, 812:55–65 (1985)).
# ^31P-NMR spectra were obtained using a temperature controlled Bruker MSL200 spectrometer operating at 81 MHz. Free induction decays were accumulated for 2000 transients using a 4 μs, 90° pulse, 1 sec. interpulse delay, 20 KHz sweep width and Waltz decoupling. A 50 Hz line broadening was applied to the data prior to Fourier transformation. Samples were allowed to equilibrate at the indicated temperature for 30 minutes prior to data accumulation. Lipid concentrations of 30–70 mM were used.
# [2] = Lipid mixing (FRET) assay, NaCl-induced fusion of DOPE:DODAC liposomes; settings: DOPE:DODAC:PEG-lipid 83:15:2, 300 mM NaCl, POPC sink, 37° C.
# Method: FIG. 16 illustrates the inhibition of fusion of DOPE:DODAC liposomes by PEG-PE. Liposomes were prepared from either DOPE:DODAC (85:15) or DOPE:DODAC:DMPE-PEG2000 (83:15:2). Fusion was assayed as described under FIG. 1 using 300 mM NaCl.
# FIG. 17 illustrates the recovery fusogenic activity after PEG removal. Liposomes were prepared from either DOPE:DODAC:ceramide(C8:0)-PEG2000, 83:15:2 or […], 38:45:15:2. Fusion was assayed as described under FIG. 2 except that at the indicated times a 30 fold excess (over donors) of liposomes composed of POPC or POPC:cholesterol (55:45) was added.
# FIG. 18 illustrates the effect of the lipid anchor on the rate of PEG-lipid removal. […] At zero time a 13-fold excess (over labelled vesicles) of POPC liposomes was added and the fluorescence intensity was measured at the indicated times. At the end of the assay Triton X-100 (0.5% final) was added to eliminate energy transfer and the % fusion was calculated from the change in efficiency of energy transfer. Maximum fusion was calculated from a standard curve of energy transfer efficiency against the molar fraction of Rh-PE in the membrane assuming complete mixing of labelled and unlabelled liposomes.
# Lipid mixing was measured by a modification of the fluorescence resonance energy transfer (FRET) assay of Struck, et al. (Biochemistry, 20:4093–4099 (1981)). […]
substance,measurement,setting,value
1-O-methyl-(poly(ethoxy)-O-succinyl-O-(egg)ceramide [egg ceramide-PEG2000],phase preference by 31P-NMR,[1],exclusively bilayer up to 60 °C
same,time for 50% maximal fusion,[2],over 20 hr
